The values that follow come from the supplement of paper PMC7877785.

± gives the uncertainty stated by the source.

This data set is described as follows: self-splicing fitness, log relative to wild type (ln ratio); higher = more splicing; Tetrahymena group I intron in knt gene, E. coli kanamycin selection, DiMSum; sequences stand for … in CUCUCU…GGAGGGAAAAGUUAUCAGGCAUGCACCUGGUAGCUAGUCUUUAAACCAAUAGAUUGCAUCGGUUUAAAAGGCAAGACCGUCAAAUUGCGGGAAAGGGGUCAACAGCCGUUCAGUACCAAGUCUCAGGGGAAACUUUGAGAUGGCCUUGCAAAGGGUAUGGUAAUAAGCUGACGGACAUGGUCCUAACCACGCAGCCAAGUCCUAAGUCAACAGAUCUUCUGUUGAUAUGGAUGCAGUUCACAGACUAAAUGUCGGUCGGGGAAGAUGUAUUCUUCUCAUAAGAUAUAGUCGGACCUCUCCUUAAUGGGAGCUAGCGGAUGAAGUGAUGCAACACUGGAGCCGCUGGGAACUAAUUUGUAUGCGAAAGUAUAUUGAUUAGUUUUGGAGUACUCGUGGUCG
The method in brief:
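Six replicate transformations of E. coli BL21(DE3) with a pET-22b(+) library were grown overnight at 37°C or 30°C. The library randomised all eight P1ex-region intron nucleotides, the intron lying in the knt kanamycin-resistance gene, and plates were LB agar with or without 25 μg/mL kanamycin plus 100 μg/mL carbenicillin, 50 μM IPTG and 0.2% rhamnose. Pooled colonies were amplicon-sequenced on an Illumina HiSeq 2500, and fitness is the DiMSum error-weighted combination of wild-type-normalised replicate fold changes, kanamycin versus none.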

As for AUGCAGCAAUAUUACGUAUG, the “self-splicing fitness (ln)” value (30 °C) was -3.15 ± 0.16 and the “self-splicing fitness (ln)” value (37 °C) is -1.09 ± 0.16. The like results for AUGCAGCAAUAUUACGUCGA were, in that order, -1.61 ± 0.09 and -0.738 ± 0.11. Turning to AUGCAGCAAUAUUACGUCGC, the “self-splicing fitness (ln)” value is, setting by setting: (30 °C) -3.69 ± 0.31; (37 °C) -2.57 ± 0.32. The like results for AUGCAGCAAUAUUACGUCUC were, in that order, -1.93 ± 0.071 and -1.05 ± 0.092.

On to AUGCAGCAAUAUUACGUGAG, for which the “self-splicing fitness (ln)” value by setting is: (30 °C) -1.36 ± 0.049; (37 °C) -1.06 ± 0.073. The like results for AUGCAGCAAUAUUACGUUCC were, in that order, -1.55 ± 0.18 and -1.17 ± 0.22. AUGCAGCAAUAUUACGUUGG: the “self-splicing fitness (ln)” value runs as follows: (30 °C) -2.96 ± 0.098; (37 °C) -2.33 ± 0.17.

On to AUGCAGCAAUAUUACGUUUU, for which the “self-splicing fitness (ln)” value (30 °C) is -2.8 ± 0.1 and the “self-splicing fitness (ln)” value (37 °C) is -1.65 ± 0.099. AUGGAGCAAUAUUACGAGGU: the “self-splicing fitness (ln)” value is -2.74 ± 0.2 (30 °C) and -3.38 ± 0.31 (37 °C).

As for AUGGAGCAAUAUUACGCACG, the “self-splicing fitness (ln)” value is -2.3 ± 0.3 (30 °C) and -1.26 ± 0.34 (37 °C).

As for AUGGAGCAAUAUUACGCCUG, the “self-splicing fitness (ln)” value is, setting by setting: (30 °C) -2.34 ± 0.27; (37 °C) -2.3 ± 0.28.

Turning to AUGGAGCAAUAUUACGCGGU, the “self-splicing fitness (ln)” value was -2.6 ± 0.25 (30 °C) and -2.29 ± 0.25 (37 °C). Turning to AUGGAGCAAUAUUACGGAUU, the “self-splicing fitness (ln)” value by setting is: (30 °C) -2.09 ± 0.13; (37 °C) 0.177 ± 0.13.

In the case of AUGGAGCAAUAUUACGGGGA, the “self-splicing fitness (ln)” value is -3.29 ± 0.4 (30 °C) and -2.28 ± 0.32 (37 °C). Regarding AUGGAGCAAUAUUACGGUGU, the “self-splicing fitness (ln)” value (30 °C) was -2.12 ± 0.18 and the “self-splicing fitness (ln)” value (37 °C) was -0.816 ± 0.24.

For the sequence AUGGAGCAAUAUUACGUAGA, the “self-splicing fitness (ln)” value (37 °C) is -2.39 ± 0.42.

Turning to AUGGAGCAAUAUUACGUCGG, the “self-splicing fitness (ln)” value runs as follows: (30 °C) -2.7 ± 0.26; (37 °C) -1.13 ± 0.24.

Take AUGGAGCAAUAUUACGUUAG: the “self-splicing fitness (ln)” value by setting is: (30 °C) -3.17 ± 0.32; (37 °C) -2.49 ± 0.29. For the sequence AUGGAGCAAUAUUACGUUAU, the “self-splicing fitness (ln)” value is, setting by setting: (30 °C) -2.96 ± 0.13; (37 °C) -1.77 ± 0.12. For AUGGAGCAAUAUUACGUUGC, in that order: -3.34 ± 0.4 and -2.22 ± 0.42. For AUGUAGCAAUAUUACGAAAC, in that order: -2.77 ± 0.24 and -1.76 ± 0.27. The like results for AUGUAGCAAUAUUACGACAC were, in that order, -1.31 ± 0.14 and -0.0916 ± 0.2. Turning to AUGUAGCAAUAUUACGAGAG, the “self-splicing fitness (ln)” value (30 °C) was -4.62 ± 0.39 and the “self-splicing fitness (ln)” value (37 °C) is -2.71 ± 0.22. AUGUAGCAAUAUUACGAGGG: the “self-splicing fitness (ln)” value reads like this: (30 °C) -3.49 ± 0.23; (37 °C) -1.18 ± 0.22.

For the sequence AUGUAGCAAUAUUACGAGGU, the “self-splicing fitness (ln)” value (30 °C) is -2.28 ± 0.19 and the “self-splicing fitness (ln)” value (37 °C) was -1.84 ± 0.23.

AUGUAGCAAUAUUACGAGUA: the “self-splicing fitness (ln)” value was -2.73 ± 0.17 (30 °C) and -1.72 ± 0.13 (37 °C). Take AUGUAGCAAUAUUACGAUUU: the “self-splicing fitness (ln)” value is -0.199 ± 0.093 (30 °C) and 0.373 ± 0.11 (37 °C).

Regarding AUGUAGCAAUAUUACGCGCG, the “self-splicing fitness (ln)” value was -0.882 ± 0.093 (30 °C) and -0.464 ± 0.099 (37 °C). For AUGUAGCAAUAUUACGCGUG, in that order: -1.44 ± 0.12 and -0.836 ± 0.12. For AUGUAGCAAUAUUACGCUUA, in that order: -0.903 ± 0.14 and -0.145 ± 0.16. For AUGUAGCAAUAUUACGGACC, in that order: -1.05 ± 0.2 and -0.411 ± 0.21. For AUGUAGCAAUAUUACGGAUC, the “self-splicing fitness (ln)” value by setting is: (30 °C) -1.92 ± 0.2; (37 °C) -1.61 ± 0.23. For AUGUAGCAAUAUUACGGCAU, the “self-splicing fitness (ln)” value (30 °C) is -1.88 ± 0.12 and the “self-splicing fitness (ln)” value (37 °C) is -1.69 ± 0.16. For AUGUAGCAAUAUUACGGGAG, the “self-splicing fitness (ln)” value reads like this: (30 °C) -3.16 ± 0.29; (37 °C) -2.64 ± 0.44.

Consider AUGUAGCAAUAUUACGGGUU, for which the “self-splicing fitness (ln)” value is -2.26 ± 0.1 (30 °C) and -2.23 ± 0.19 (37 °C).

As to AUGUAGCAAUAUUACGGUUG, the “self-splicing fitness (ln)” value is -3.62 ± 0.2 (30 °C) and -1.99 ± 0.19 (37 °C). Take AUGUAGCAAUAUUACGUAUC: the “self-splicing fitness (ln)” value runs as follows: (30 °C) -4.2 ± 0.42; (37 °C) -2.58 ± 0.3. For AUGUAGCAAUAUUACGUCCA, in that order: -1.65 ± 0.17 and -0.252 ± 0.17.
